Three molecules from patent US20200362018A1 (YEDA RESEARCH AND DEVELOPMENT, published 2020) can be followed below.

Test [1] has as its target T1, T. acidophilum (Archaea) 20S proteasome (T. acidophilum, UniProt P25156 1-233; P28061 9-211).
T1 construct: Assembled in vitro as α7β7β7α7; also called archaeal 20S proteasome; 20S proteasome from T. acidophilum
The test can be described thus: native MS with MS/MS of the isolated 20S proteasome peak.
Description: Nanoflow electrospray ionization MS and tandem MS experiments were conducted under non-denaturing conditions on a QToF Q-Star Elite instrument (MDS Sciex, Canada), modified for improved transmission of large non-covalent complexes, or an Q-Exactive Plus Orbitrap EMR (ThermoFisher Scientific). Before MS analysis, 20 μl of up to 100 mM sample was buffer exchanged into 0.5-1 M ammonium acetate pH 7.5, using Bio-Spin columns (Bio-Rad). Sample concentrations were determined by ultraviolet absorbance. Assays were performed in positive ion mode and conditions were optimized to enable the ionization and removal of adducts, without disrupting the non-covalent interactions of the proteins tested. In tandem MS experiments, the relevant m/z values were isolated and argon gas was admitted to the collision cell. […] The following experimental parameters were used on the QToF Q-Star Elite instrument: capillary voltage up to 1.1 kV, declustering potential up to 220 V, focusing potential up to 240 V, a second declustering potential of 15 V, collision energy of between 20 and 200 V and an MCP of 2,350 V. The following experimental conditions were used on the Q-Exactive Plus Orbitrap EMR: capillary voltage 1.7 kV, MS spectra were recorded at low resolution (5000), and the HCD cell voltage was set to 20-50 V, at trapping gas pressure setting of 3.9.

The target in test [2] is T1, T. acidophilum (Archaea) 20S proteasome. In words: peptide array of overlapping T. acidophilum 20S proteasome peptides.
For a further test, the target named is α-synuclein (UniProt P37840 1-140). In words: native mass spectrometry of α-synuclein incubated with the CCR.

T1 sequence (P25156 whole entry, chain 1 of 2): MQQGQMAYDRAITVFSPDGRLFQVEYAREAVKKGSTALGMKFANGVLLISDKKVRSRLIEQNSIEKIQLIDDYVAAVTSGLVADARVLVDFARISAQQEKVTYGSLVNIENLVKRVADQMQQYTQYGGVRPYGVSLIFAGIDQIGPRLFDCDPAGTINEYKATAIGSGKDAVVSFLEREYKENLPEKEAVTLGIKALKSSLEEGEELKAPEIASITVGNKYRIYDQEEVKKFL
T1 sequence (P28061 9-211, chain 2 of 2): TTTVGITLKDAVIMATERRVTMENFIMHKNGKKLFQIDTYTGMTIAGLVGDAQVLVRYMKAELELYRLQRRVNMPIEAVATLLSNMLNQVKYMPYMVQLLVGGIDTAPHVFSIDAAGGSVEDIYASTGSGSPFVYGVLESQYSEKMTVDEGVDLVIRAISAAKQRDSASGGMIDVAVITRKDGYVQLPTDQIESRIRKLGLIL
Description for α-synuclein: Nanoflow electrospray ionization MS and tandem MS experiments were conducted under non-denaturing conditions on a QToF Q-Star Elite instrument (MDS Sciex, Canada), modified for improved transmission of large non-covalent complexes, or an Q-Exactive Plus Orbitrap EMR (ThermoFisher Scientific). Before MS analysis, 20 μl of up to 100 mM sample was buffer exchanged into 0.5-1 M ammonium acetate pH 7.5, using Bio-Spin columns (Bio-Rad). Sample concentrations were determined by ultraviolet absorbance. Assays were performed in positive ion mode and conditions were optimized to enable the ionization and removal of adducts, without disrupting the non-covalent interactions of the proteins tested. In tandem MS experiments, the relevant m/z values were isolated and argon gas was admitted to the collision cell. […] The following experimental parameters were used on the QToF Q-Star Elite instrument: capillary voltage up to 1.1 kV, declustering potential up to 220 V, focusing potential up to 240 V, a second declustering potential of 15 V, collision energy of between 20 and 200 V and an MCP of 2,350 V. The following experimental conditions were used on the Q-Exactive Plus Orbitrap EMR: capillary voltage 1.7 kV, MS spectra were recorded at low resolution (5000), and the HCD cell voltage was set to 20-50 V, at trapping gas pressure setting of 3.9. […]

B1: human DJ-1 (other, UniProt Q99497 1-189, looked up)
chain: MASKRALVILAKGAEEMETVIPVDVMRRAGIKVTVAGLAGKDPVQCSRDVVICPDASLEDAKKEGPYDVVVLPGGNLGAQNLSESAAVKEILKEQENRKGLIAAICAGPTALLAHEIGFGSKVTTHPLAKDKMMNGGHYTYSENRVEKDGLILTSRGPGTSFEFALAIVEALNGKEVAAQVKAPLVLKD
notes: also called PARK7
In the case of B1, the binding result in test [1] is recorded as “binds”.

B2: human CBR3 (recombinant, His tag removed) (enzyme, UniProt O75828 1-277, looked up)
chain: MSSCSRVALVTGANRGIGLAIARELCRQFSGDVVLTARDVARGQAAVQQLQAEGLSPRFHQLDIDDLQSIRALRDFLRKEYGGLNVLVNNAAVAFKSDDPMPFDIKAEMTLKTNFFATRNMCNELLPIMKPHGRVVNISSLQCLRAFENCSEDLQERFHSETLTEGDLVDLMKKFVEDTKNEVHEREGWPNSPYGVSKLGVTVLSRILARRLDEKRKADRILVNACCPGPVKTDMDGKDSIRTVEEGAETPVYLALLPPDATEPQGQLVHDKVVQNW
For the molecule B2, the binding result in test [2] was “binds”; with α-synuclein it was “no binding”.

B3: human PGDH with a C-terminal 6His tag (enzyme)
chain: MHVNGKVALVTGAAQGIGRAFAEALLLKGAKVALVDWNLEAGVQCKAALDEQFEPQKTLFIQCDVADQQQLRDTFRKVVDHFGRLDILVNNAGVNNEKNWEKTLQINLVSVISGTYLGLDYMSKQNGGEGGIIINMSSLAGLMPVAQQPVYCASKHGIVGFTRSAALAANLMNSGVRLNAICPGFVNTAILESIEKEENMGQYIEYKDHIKDMIKYYGILDPPLIANGLITLIEDDALNGAIMKITTSKGIHFQDYDTTPFQAKTQ
notes: also called PGDH-His; not shown: C-terminal 6His tag
As to B3, in the test with α-synuclein, the binding result is reported as “no binding”.
